Experimental data: paper PMC11417369, “DNA sequence and chromatin differentiate sequence-specific transcription factor binding in the human malaria parasite Plasmodium falciparum”

T1: AP2-HC D1 (Plasmodium falciparum, UniProt Q8IKR9 1316-1374)
T1 sequence: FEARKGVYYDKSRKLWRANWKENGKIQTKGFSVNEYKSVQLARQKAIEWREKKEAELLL


Molecular target: T1, AP2-HC D1
Experiment: gcPBM; about 25 ug protein; PBS, 1% milk, 0.2 mg/ml BSA, salmon testes DNA, 0.03% Triton X-100
Details: tags: N-terminal GST (pGEX-4T-1), kept; label: surface-attached array probe

Row | Binder | binding signal
1 | CACACA_site806 (dsDNA) DNA 1: ATTTAAATAAGATATACACACAAGTAGAAGACTATG DNA 2: CATAGTCTTCTACTTGTGTGTATATCTTATTTAAAT | 9.85 ln median PBM intensity, better of two orientations
2 | CACACA_site8531 (dsDNA) DNA 1: ATTTATAATTTTTGAGCACACACAAGCATATATATA DNA 2: TATATATATGCTTGTGTGTGCTCAAAAATTATAAAT | 9.85 ln median PBM intensity, better of two orientations
3 | CACACA_site762 (dsDNA) DNA 1: ATTTTTTTATTTTGTGCACACACATAAAAATATATA DNA 2: TATATATTTTTATGTGTGTGCACAAAATAAAAAAAT | 9.86 ln median PBM intensity, better of two orientations
4 | CACACA_site1704 (dsDNA) DNA 1: ACCTCATAATATTTAACACACAAAATTATATGTATG DNA 2: CATACATATAATTTTGTGTGTTAAATATTATGAGGT | 9.87 ln median PBM intensity, better of two orientations
5 | CACACA_site7599 (dsDNA) DNA 1: AGCATTTTAAGTTATACACACATTTTGAATCTATAT DNA 2: ATATAGATTCAAAATGTGTGTATAACTTAAAATGCT | 9.87 ln median PBM intensity, better of two orientations
6 | CACACA_site2466 (dsDNA) DNA 1: TACCTAATATGTTATACACACATTATGAGTACATAT DNA 2: ATATGTACTCATAATGTGTGTATAACATATTAGGTA | 9.88 ln median PBM intensity, better of two orientations
7 | CACACA_site3027 (dsDNA) DNA 1: AAGTTTATTTGTTGCACACATATAAGTAGAGAAAAT DNA 2: ATTTTCTCTACTTATATGTGTGCAACAAATAAACTT | 9.88 ln median PBM intensity, better of two orientations
8 | CACACA_site315 (dsDNA) DNA 1: ACCAATAATATACATACACACATAAAGGTTTATATA DNA 2: TATATAAACCTTTATGTGTGTATGTATATTATTGGT | 9.89 ln median PBM intensity, better of two orientations
9 | CACACA_site6815 (dsDNA) DNA 1: TAAGAGTAGTTATATACACACATGTATATTATAGTT DNA 2: AACTATAATATACATGTGTGTATATAACTACTCTTA | 9.9 ln median PBM intensity, better of two orientations
10 | CACACA_site6369 (dsDNA) DNA 1: ATAAATAAGATATATACACACATATCTATACATATT DNA 2: AATATGTATAGATATGTGTGTATATATCTTATTTAT | 9.9 ln median PBM intensity, better of two orientations
11 | CACACA_site2016 (dsDNA) DNA 1: CCAACATATATTATCACACACATATATATATATATA DNA 2: TATATATATATATATGTGTGTGATAATATATGTTGG | 9.91 ln median PBM intensity, better of two orientations
12 | CACACA_site5129 (dsDNA) DNA 1: TATAAATACATACGTACACACAAATATTAAAATATA DNA 2: TATATTTTAATATTTGTGTGTACGTATGTATTTATA | 9.91 ln median PBM intensity, better of two orientations
13 | CACACA_site884 (dsDNA) DNA 1: ATGTGGAAATAGAGCACACATATATATAATATATAT DNA 2: ATATATATTATATATATGTGTGCTCTATTTCCACAT | 9.92 ln median PBM intensity, better of two orientations
14 | CACACA_site1955 (dsDNA) DNA 1: AATGAATGTAAGAAAATACACACTAGTATAGTAACA DNA 2: TGTTACTATACTAGTGTGTATTTTCTTACATTCATT | 9.93 ln median PBM intensity, better of two orientations
15 | CACACA_site3596 (dsDNA) DNA 1: AAATTCAAACAAATTACACACATTTTTTTTTAATTT DNA 2: AAATTAAAAAAAAATGTGTGTAATTTGTTTGAATTT | 9.94 ln median PBM intensity, better of two orientations
16 | CACACA_site2516 (dsDNA) DNA 1: AAAAAAAATGATAATATACACACTTATGGGAGAGCG DNA 2: CGCTCTCCCATAAGTGTGTATATTATCATTTTTTTT | 9.94 ln median PBM intensity, better of two orientations
17 | CACACA_site1591 (dsDNA) DNA 1: TTAGCAACTATTACTACACACATTTGTATATAATTT DNA 2: AAATTATATACAAATGTGTGTAGTAATAGTTGCTAA | 9.95 ln median PBM intensity, better of two orientations
18 | CACACA_site7038 (dsDNA) DNA 1: ACAACATATGTTATCACACACATATAAATATAAATA DNA 2: TATTTATATTTATATGTGTGTGATAACATATGTTGT | 9.96 ln median PBM intensity, better of two orientations
19 | CACACA_site8037 (dsDNA) DNA 1: TAAAAGAAATAAGGTGCACACATATACATATATATA DNA 2: TATATATATGTATATGTGTGCACCTTATTTCTTTTA | 9.97 ln median PBM intensity, better of two orientations
20 | CACACA_site2473 (dsDNA) DNA 1: GTTATTGTAAAAAGATTACACACGTTCTATATACTT DNA 2: AAGTATATAGAACGTGTGTAATCTTTTTACAATAAC | 9.97 ln median PBM intensity, better of two orientations
21 | CACACA_site7206 (dsDNA) DNA 1: TACCTAATATGTTATACACACATTATAAGTACATAT DNA 2: ATATGTACTTATAATGTGTGTATAACATATTAGGTA | 9.98 ln median PBM intensity, better of two orientations
22 | CACACA_site9021 (dsDNA) DNA 1: ATTTCGTAATTTATATCACACACATATATATATAAT DNA 2: ATTATATATATATGTGTGTGATATAAATTACGAAAT | 9.99 ln median PBM intensity, better of two orientations

Row | Binder | binding signal
23 | CACACA_site1808 (dsDNA) DNA 1: ATAAATATTAAAAGTACACACAGATACACTAATTAT DNA 2: ATAATTAGTGTATCTGTGTGTACTTTTAATATTTAT | 10 ln median PBM intensity, better of two orientations
24 | CACACA_site2909 (dsDNA) DNA 1: TTCTTTTTCCAATTTGCACACCACAAAATTATATAT DNA 2: ATATATAATTTTGTGGTGTGCAAATTGGAAAAAGAA | 10 ln median PBM intensity, better of two orientations
25 | CACACA_site8007 (dsDNA) DNA 1: TTTATTTTATCATTTGCACACGCACCCCCACATAAA DNA 2: TTTATGTGGGGGTGCGTGTGCAAATGATAAAATAAA | 10 ln median PBM intensity, better of two orientations
26 | CACACA_site1882 (dsDNA) DNA 1: ATATAGATCTACACTGCACACATTTTTAACACTGCT DNA 2: AGCAGTGTTAAAAATGTGTGCAGTGTAGATCTATAT | 10 ln median PBM intensity, better of two orientations
27 | CACACA_site7113 (dsDNA) DNA 1: TACGTTCTGATATATACACACCTGGTATTAATTATG DNA 2: CATAATTAATACCAGGTGTGTATATATCAGAACGTA | 10 ln median PBM intensity, better of two orientations
28 | CACACA_site6743 (dsDNA) DNA 1: AAGAAGCATAAATGTACACACATATTTATATATCAA DNA 2: TTGATATATAAATATGTGTGTACATTTATGCTTCTT | 10.1 ln median PBM intensity, better of two orientations
29 | CACACA_site8492 (dsDNA) DNA 1: AAAAAAAAAAAAAAAACACACACAAATTTAATATAT DNA 2: ATATATTAAATTTGTGTGTGTTTTTTTTTTTTTTTT | 10.1 ln median PBM intensity, better of two orientations
30 | CACACA_site3408 (dsDNA) DNA 1: GATCTATACATGGGGACACACATCACTCTATATTTT DNA 2: AAAATATAGAGTGATGTGTGTCCCCATGTATAGATC | 10.1 ln median PBM intensity, better of two orientations
31 | CACACA_site382 (dsDNA) DNA 1: GATATATATATTCACACACACATGGAAATATATATA DNA 2: TATATATATTTCCATGTGTGTGTGAATATATATATC | 10.1 ln median PBM intensity, better of two orientations
32 | CACACA_site8055 (dsDNA) DNA 1: ATCTAAATAAAGTTAACACACACATAATATATATAT DNA 2: ATATATATATTATGTGTGTGTTAACTTTATTTAGAT | 10.1 ln median PBM intensity, better of two orientations
33 | CACACA_site9316 (dsDNA) DNA 1: CTTTTTAATAAATATACACACACAAAAAAAAAAAAA DNA 2: TTTTTTTTTTTTTGTGTGTGTATATTTATTAAAAAG | 10.1 ln median PBM intensity, better of two orientations
34 | CACACA_negctrl_site1670 (dsDNA) DNA 1: TTTATTTAAAAAATAAAAAAAAAAAAAAAAAAAAAA DNA 2: TTTTTTTTTTTTTTTTTTTTTTATTTTTTAAATAAA | 8.32 ln median PBM intensity, better of two orientations
35 | CACACA_negctrl_site1524 (dsDNA) DNA 1: TTTTTTTTTTTTTTTTTTTTACCCCTTTTTCAAAAA DNA 2: TTTTTGAAAAAGGGGTAAAAAAAAAAAAAAAAAAAA | 8.65 ln median PBM intensity, better of two orientations
36 | CACACA_negctrl_site1727 (dsDNA) DNA 1: TAACCACAAAAATAAAATCAAAAAAAAAAAAAAAAA DNA 2: TTTTTTTTTTTTTTTTTGATTTTATTTTTGTGGTTA | 8.75 ln median PBM intensity, better of two orientations
37 | CACACA_negctrl_site1343 (dsDNA) DNA 1: TTTTAAAAAAAAAAAAAAAAAAAAAAAAAAAAAAAA DNA 2: TTTTTTTTTTTTTTTTTTTTTTTTTTTTTTTTAAAA | 8.78 ln median PBM intensity, better of two orientations
38 | CACACA_negctrl_site807 (dsDNA) DNA 1: TTTTTTTTTTTTTTTTTTAAACACCTCAAAAAAAAA DNA 2: TTTTTTTTTGAGGTGTTTAAAAAAAAAAAAAAAAAA | 8.83 ln median PBM intensity, better of two orientations
39 | CACACA_negctrl_site585 (dsDNA) DNA 1: TTTTTTTCTTGTTTTAAATAATATACTGGAAAAAAA DNA 2: TTTTTTTCCAGTATATTATTTAAAACAAGAAAAAAA | 8.87 ln median PBM intensity, better of two orientations
40 | CACACA_negctrl_site143 (dsDNA) DNA 1: ATAAACAGAAAAAAAAAAAAAAAAAAAAAAAAAAAA DNA 2: TTTTTTTTTTTTTTTTTTTTTTTTTTTTCTGTTTAT | 8.89 ln median PBM intensity, better of two orientations
41 | CACACA_negctrl_site273 (dsDNA) DNA 1: TTTTTTTTTTTTTTTTTTTTTTGTGAAACTAAGTAA DNA 2: TTACTTAGTTTCACAAAAAAAAAAAAAAAAAAAAAA | 8.92 ln median PBM intensity, better of two orientations
42 | CACACA_negctrl_site1615 (dsDNA) DNA 1: TTTTTTTGCATGAGCAATAAAAAAGGCTTGTTCAAA DNA 2: TTTGAACAAGCCTTTTTTATTGCTCATGCAAAAAAA | 9.03 ln median PBM intensity, better of two orientations
43 | CACACA_negctrl_site292 (dsDNA) DNA 1: AAAAAAAAAAAAAAAAAAAAAAAAAAAAAAAAAAAG DNA 2: CTTTTTTTTTTTTTTTTTTTTTTTTTTTTTTTTTTT | 9.04 ln median PBM intensity, better of two orientations
44 | CACACA_negctrl_site819 (dsDNA) DNA 1: TGATTATATAAAAAAAAGAAAAAAAAAAAAAAAAAA DNA 2: TTTTTTTTTTTTTTTTTTCTTTTTTTTATATAATCA | 9.07 ln median PBM intensity, better of two orientations
